Reference: US20020045192A1, “Arf and HDM2 interaction domains and methods of use thereof” (St. Jude Children's Research Hospital, priority 2001, published 2002)

Legend:
[1] = target: T1, mArfN37 (Mus musculus, UniProt Q64364); experiment: SPR binding of Hdm2 constructs and Hdm2 peptides to immobilized His-tagged mArfN37; conditions: His-mArfN37 captured by covalently linked His antibody
T1 construct: An N-terminal fragment of mouse p19^Arf corresponding to residues 1-37 (mArfN37) was purified in a similar manner; made in house
T1 sequence (Q64364 1-37 limits assumed): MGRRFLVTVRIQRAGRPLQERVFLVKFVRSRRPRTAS
Experimental: Binding studies were performed using a Biacore 3000 surface plasmon resonance (SPR) instrument (Biacore, Inc.). A Tetra-His™ Antibody (Qiagen, Inc.; Cat. #34670) was covalently attached to a carboxymethylated gold surface (C-1 chip; Biacore, Inc.). The carboxymethyl groups on the surface were activated with N-ethyl-N′-(3-dimethylaminopropyl) carbodiimide (EDC) and N-hydroxysuccinimide (NHS) and the antibody was attached at pH 7.4 in 20 mM sodium phosphate buffer, 150 mM NaCl (PBS). Reactive sites remaining on the surface were blocked by reaction with ethanolamine. […] Binding was measured by flowing the non-His-tagged analyte through the reference and ligand-containing flow cells in sequence. […] Changes in the SPR response due to solvent differences and the injection process were monitored by injection of HBS-N buffer alone. […]
It has been previously shown that a fragment of mouse p19^Arf containing the N-terminal 37 amino acids (mArfN37) can (i) bind Hdm2, (ii) cause the relocalization of Hdm2 to nucleoli, and (iii) induce cell cycle arrest in MEFs [see, U.S. patent application Ser. No. 09/480,718, Filed Jan. […] However, because mArfN37 is a relatively small polypeptide, it was determined whether it could bind a correspondingly small segment of Hdm2. […]

[2] = target: T2, GFP-p19^Arf (Mus musculus, UniProt Q64364); experiment: Nuclear microinjection and live cell imaging of Texas Red labeled Hdm2 constructs in NIH 3T3 cells lacking Arf; format: cell-based; conditions: NIH 3T3 Arf-/- cells, nuclear microinjection
T2 construct: expressed in transfected cells; host or cells: NIH 3T3 Arf-/- cells
T2 sequence (Q64364 1-169): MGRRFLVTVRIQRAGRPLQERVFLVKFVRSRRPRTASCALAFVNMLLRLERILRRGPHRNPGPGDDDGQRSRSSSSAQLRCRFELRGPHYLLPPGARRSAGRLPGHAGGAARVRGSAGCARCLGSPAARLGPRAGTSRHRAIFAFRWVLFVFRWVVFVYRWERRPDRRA
Experimental: Proteins for fluorescence microimaging studies were covalently modified using an amine-reactive, sulfosuccinimidyl ester of Texas Red™ (Molecular Probes, Inc., Cat. # C-1171). In brief, purified Hdm2-derived proteins were dialyzed into 100 mM sodium bicarbonate buffer, pH 8.3 at 2-4 mg/ml. The Texas Red™ dye was dissolved in dimethylsulfoxide at 10 mg/ml. Protein and dye 3:1 (vol:vol) were reacted for 1 hour at room temperature followed by purification using size-exclusion chromatography (NAP 5 G-25 columns, Amersham Pharmacia Biotech, Inc.). Labeled protein bands migrated more slowly than unlabeled protein in SDS-polyacrylamide gels consistent with the covalent attachment of dye.
NIH 3T3 Arf^−/− cells passage 10-15 were cultured in Dulbecco's modified Eagle's medium (Dulbecco's modified Eagle's medium (DMEM); Gibco-Invitrogen, Inc.), 10% fetal bovine serum (FBS) at 37° C., 7% CO2. 24 hours prior to transfection, cells were plated on 35 mm dishes coated with poly-D-Lysine (Mattek, Corp.) at a density of 3×10^4 cells per dish. […] An Axiovert 135 TV inverted fluorescence microscope with an automated stage controller (Carl Zeiss, Inc.) and circulating water bath heater (Fisher) was used for both microinjection and imaging. […]

Row | Molecule | binding to His-tagged mArfN37 immobilized on the SPR biosensor surface [1] | localization of Texas Red labeled Hdm2 construct when GFP-p19^Arf is expressed [2]
1 | Hdm2 210-275: Fragment of Hdm2 corresponding to residues 210-275 of SEQ ID NO:8 (protein, listed as Homo sapiens) SSSSESTGTPSNPDLDAGVSEHSGDWLDQDSVSDQFSVEFEVESLDSEDYSLSEEGQELSDEDDEV | bind tightly | nucleolar localization
2 | Hdm2 277-350: Texas Red labeled Hdm2 deletion construct containing residues 277-350 (protein) QVTVYQAGESDTDSFEEDPEISLADYWKCTSCNEMNPPLPSHCNRCWALRENWLPEDKGKDKGEISEKAKLENS | – | localized in the nucleoplasm rather than in nucleoli
